Here are results for two substances from US7604990.

For one assay, the target named is PDGFR-α (human) (UniProt P16234). Put plainly: cell-based or functional assay.
The next assay deals with PDGFR-β (human) (UniProt P09619). In words: cell-based or functional assay.
Sequence of PDGFR-β (human) (P09619 33-1106): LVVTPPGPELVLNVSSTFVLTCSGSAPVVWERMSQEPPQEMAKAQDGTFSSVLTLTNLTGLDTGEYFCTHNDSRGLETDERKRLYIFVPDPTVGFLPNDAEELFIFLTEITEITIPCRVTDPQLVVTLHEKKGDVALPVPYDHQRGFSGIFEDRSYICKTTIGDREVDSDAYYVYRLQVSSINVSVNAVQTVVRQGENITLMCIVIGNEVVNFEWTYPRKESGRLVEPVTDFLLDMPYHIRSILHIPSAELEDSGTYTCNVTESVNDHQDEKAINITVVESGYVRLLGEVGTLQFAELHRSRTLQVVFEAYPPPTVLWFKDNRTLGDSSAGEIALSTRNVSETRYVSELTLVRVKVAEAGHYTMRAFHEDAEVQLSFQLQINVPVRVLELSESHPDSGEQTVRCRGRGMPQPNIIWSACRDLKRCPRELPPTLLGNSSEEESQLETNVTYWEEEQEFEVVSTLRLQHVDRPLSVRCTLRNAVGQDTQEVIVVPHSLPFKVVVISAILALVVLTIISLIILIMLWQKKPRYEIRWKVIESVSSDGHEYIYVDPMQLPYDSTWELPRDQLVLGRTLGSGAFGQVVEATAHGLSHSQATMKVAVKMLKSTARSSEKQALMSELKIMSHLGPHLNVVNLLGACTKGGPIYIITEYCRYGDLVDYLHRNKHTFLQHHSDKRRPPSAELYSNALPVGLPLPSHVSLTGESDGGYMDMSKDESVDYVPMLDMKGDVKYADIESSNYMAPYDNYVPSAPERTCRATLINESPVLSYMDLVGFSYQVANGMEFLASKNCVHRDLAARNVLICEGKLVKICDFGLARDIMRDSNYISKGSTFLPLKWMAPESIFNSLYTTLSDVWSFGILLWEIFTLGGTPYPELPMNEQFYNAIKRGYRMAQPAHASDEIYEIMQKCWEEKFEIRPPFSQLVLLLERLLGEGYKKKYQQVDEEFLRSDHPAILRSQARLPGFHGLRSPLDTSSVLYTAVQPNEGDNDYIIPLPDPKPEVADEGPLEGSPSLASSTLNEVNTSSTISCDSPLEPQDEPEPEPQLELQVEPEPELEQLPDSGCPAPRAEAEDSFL

Sequence of PDGFR-α (human) (P16234 24-1089): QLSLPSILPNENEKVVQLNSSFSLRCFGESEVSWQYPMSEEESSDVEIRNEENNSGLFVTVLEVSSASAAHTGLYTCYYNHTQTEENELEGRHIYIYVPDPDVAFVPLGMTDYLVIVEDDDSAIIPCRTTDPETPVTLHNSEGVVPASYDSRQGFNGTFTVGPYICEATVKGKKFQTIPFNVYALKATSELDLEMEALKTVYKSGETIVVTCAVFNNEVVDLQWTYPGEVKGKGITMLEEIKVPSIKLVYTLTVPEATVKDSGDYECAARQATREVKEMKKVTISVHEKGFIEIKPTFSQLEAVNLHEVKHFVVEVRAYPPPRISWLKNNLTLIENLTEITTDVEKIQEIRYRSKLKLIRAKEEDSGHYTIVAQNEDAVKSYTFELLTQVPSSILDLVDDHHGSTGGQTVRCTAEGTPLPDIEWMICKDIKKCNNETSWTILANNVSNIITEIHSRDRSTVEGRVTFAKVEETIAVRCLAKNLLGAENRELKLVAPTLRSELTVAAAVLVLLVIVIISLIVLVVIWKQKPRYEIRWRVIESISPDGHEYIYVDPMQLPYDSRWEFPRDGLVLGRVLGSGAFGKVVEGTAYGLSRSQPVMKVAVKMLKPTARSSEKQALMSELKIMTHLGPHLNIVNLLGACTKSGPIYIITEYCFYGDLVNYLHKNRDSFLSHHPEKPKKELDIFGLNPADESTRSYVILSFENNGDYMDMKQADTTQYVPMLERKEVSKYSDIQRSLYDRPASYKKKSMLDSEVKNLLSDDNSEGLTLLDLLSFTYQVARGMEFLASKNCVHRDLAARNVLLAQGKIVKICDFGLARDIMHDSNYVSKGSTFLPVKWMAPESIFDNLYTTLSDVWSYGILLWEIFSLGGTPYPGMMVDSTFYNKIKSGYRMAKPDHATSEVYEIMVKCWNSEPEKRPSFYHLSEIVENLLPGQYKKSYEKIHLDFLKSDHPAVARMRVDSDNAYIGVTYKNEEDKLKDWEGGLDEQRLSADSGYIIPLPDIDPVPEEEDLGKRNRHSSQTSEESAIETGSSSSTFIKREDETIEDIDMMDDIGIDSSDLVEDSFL

Regarding “Human PDGF-AA (from UniProt P04085 87-211) (ligand)”, the GCTM2 expression (ELISA-based assay; hES cells treated 2 weeks in serum-free medium with S1P plus PDGF-AA) with PDGFR-α (human) was 220 % of control.

As to “Human PDGF-AB (from UniProt P04085 87-211; P01127 82-190) (ligand)”, the GCTM2 expression (ELISA-based assay; hES cells treated 2 weeks in serum-free medium with S1P plus PDGF-AB) (% more GCTM2+ than the controls) in the assay with PDGFR-α (human) and with PDGFR-β (human) was 153 each time.
